The target of the series is T1, DraTopIB (Deinococcus radiodurans, UniProt Q9RWH8 1-346).
T1 sequence: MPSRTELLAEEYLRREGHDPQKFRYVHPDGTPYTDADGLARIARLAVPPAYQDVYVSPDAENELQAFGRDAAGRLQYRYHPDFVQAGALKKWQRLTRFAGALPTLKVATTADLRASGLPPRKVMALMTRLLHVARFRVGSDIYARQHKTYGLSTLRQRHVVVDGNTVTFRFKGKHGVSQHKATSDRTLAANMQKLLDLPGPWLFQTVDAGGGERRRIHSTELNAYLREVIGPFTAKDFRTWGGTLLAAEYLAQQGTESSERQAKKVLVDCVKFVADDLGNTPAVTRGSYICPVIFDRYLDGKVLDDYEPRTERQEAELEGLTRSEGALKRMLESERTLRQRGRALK
The series can be described thus: crystal structure.

B1: 12-bp duplex (dsDNA)
DNA 1: GAATAAGGGCGC
DNA 2: GCGCCCTTATTC
In the case of B1, the binding result is given as “binds”.

(Values after PMC2886027.)
